# Measured values reported in the supplement of paper PMC7125110.
# ± gives the standard error. For some assays here: Fewer inactive variants are shown than the library holds.
# B1: glmS ribozyme (parent)
# chain: AUAAAAGCGCCAGAACUACAGAAAUGUAGUUGACGAGGAGGAGGUUUAUCGAAUUUUCGGCGGAUGCCUCCAAA
# Assays:
# Details in all cases: with glucosamine-6-phosphate
# [1] = variants of: B1; assay: kcat; higher = faster cleavage; RNA array
# Procedure, shortened: (§1)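 E. coli RNA polymerase transcribed barcoded ribozyme variants in situ on sequenced MiSeq chips, which were tracked via a hybridised Cy3 probe at 37 °C. Tiles were imaged over ~14 h after glucosamine-6-phosphate (40 μM to 10 mM) in HEPES/KCl/Mg(OAc)2 buffer was flowed in. Normalised per-tile medians were fit to one- or two-exponential decays for kobs, and kcat and KM came from weighted Michaelis–Menten fits.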
# [2] = variants of: B1; assay: self-cleavage kobs at 40 uM GlcN6P; higher = faster cleavage; RNA array
# Procedure, shortened: as §1
# [3] = variants of: B1; assay: self-cleavage kobs at 160 uM GlcN6P; higher = faster cleavage; RNA array
# Procedure, shortened: as §1
# [4] = variants of: B1; assay: self-cleavage kobs at 640 uM GlcN6P; higher = faster cleavage; RNA array
# Procedure, shortened: as §1
# [5] = variants of: B1; assay: self-cleavage kobs at 10000 uM GlcN6P; higher = faster cleavage; RNA array
# Procedure, shortened: as §1
# [6] = variants of: B1; assay: self-cleavage kobs at 2500 uM GlcN6P; higher = faster cleavage; RNA array
# Procedure, shortened: as §1
# [7] = variants of: B1; assay: KM; higher = weaker cofactor use; RNA array
# Procedure, shortened: as §1
Variant,kcat [1],self-cleavage kobs at 40 uM GlcN6P [2],self-cleavage kobs at 160 uM GlcN6P [3],self-cleavage kobs at 640 uM GlcN6P [4],self-cleavage kobs at 10000 uM GlcN6P [5],self-cleavage kobs at 2500 uM GlcN6P [6],KM [7]
G62C C70U,< 1e-05 s⁻¹,< 1e-05 s⁻¹,< 1e-05 s⁻¹,< 1e-05 s⁻¹,< 1e-05 s⁻¹,–,–
U57G C61G C70U,2.66e-05 ± 9e-06 s⁻¹,–,–,3.58e-05 ± 1.7e-05 s⁻¹,–,–,–
A64U C71U,0.000158 ± 5.9e-05 s⁻¹,–,–,3.94e-05 ± 1.3e-05 s⁻¹,0.000112 ± 1.6e-05 s⁻¹,3.79e-05 ± 1.6e-05 s⁻¹,–
A64U G66A,0.000113 ± 1.2e-05 s⁻¹,< 1e-05 s⁻¹,–,–,8.32e-05 ± 1e-05 s⁻¹,4.95e-05 ± 8.6e-06 s⁻¹,3460 ± 930 µM
U56A G60A,2.59e-05 ± 2.9e-06 s⁻¹,–,–,–,2.33e-05 ± 1.2e-05 s⁻¹,–,–
U55A C58A,0.000722 ± 7.6e-05 s⁻¹,–,–,9.44e-05 ± 2e-05 s⁻¹,0.000491 ± 7.2e-05 s⁻¹,0.000254 ± 4.5e-05 s⁻¹,4620 ± 800 µM
C61U C70G,1.1e-05 ± 2e-06 s⁻¹,–,–,–,–,–,–
C58G C71G,2.97e-05 ± 5.4e-06 s⁻¹,–,–,3.12e-05 ± 1.3e-05 s⁻¹,–,3.56e-05 ± 1.5e-05 s⁻¹,–
C58G C71A,3.56e-05 ± 9.8e-06 s⁻¹,–,4.45e-05 ± 1e-05 s⁻¹,–,1.89e-05 ± 9.2e-06 s⁻¹,4.27e-05 ± 7.5e-06 s⁻¹,–
A64G C67U,0.00193 ± 0.0003 s⁻¹,2.93e-05 ± 7.3e-06 s⁻¹,0.000155 ± 2.3e-05 s⁻¹,0.000628 ± 8.6e-05 s⁻¹,0.00154 ± 0.00015 s⁻¹,0.00125 ± 0.00017 s⁻¹,1860 ± 470 µM
U55G U57C,0.000252 ± 3.3e-05 s⁻¹,< 1e-05 s⁻¹,–,3.51e-05 ± 1e-05 s⁻¹,0.000174 ± 2.6e-05 s⁻¹,7.83e-05 ± 1.6e-05 s⁻¹,4830 ± 1100 µM
U65G G66A,0.00234 ± 0.0003 s⁻¹,4.28e-05 ± 9.4e-06 s⁻¹,0.000131 ± 2.3e-05 s⁻¹,0.000612 ± 0.0001 s⁻¹,0.00183 ± 0.00025 s⁻¹,0.0013 ± 0.0002 s⁻¹,2300 ± 450 µM
C58U C68A,3.52e-05 ± 1.5e-05 s⁻¹,–,–,–,–,5.08e-05 ± 2.1e-05 s⁻¹,–
C61G C71U,< 1e-05 s⁻¹,< 1e-05 s⁻¹,–,–,< 1e-05 s⁻¹,–,–
G63A C71A,< 1e-05 s⁻¹,–,–,–,–,–,–
U56G U65G,0.00371 ± 0.00083 s⁻¹,3.29e-05 ± 1.6e-05 s⁻¹,–,0.000301 ± 6e-05 s⁻¹,0.00218 ± 0.00031 s⁻¹,0.000811 ± 0.00023 s⁻¹,7360 ± 2500 µM
C61A G66U,< 1e-05 s⁻¹,–,–,–,–,–,–
G62C C70G C71A,3.99e-05 ± 1.8e-05 s⁻¹,–,–,6.26e-05 ± 2.7e-05 s⁻¹,–,5.21e-05 ± 2.2e-05 s⁻¹,–
U56G U69A,0.00018 ± 3.2e-05 s⁻¹,4.08e-05 ± 1.8e-05 s⁻¹,–,0.000102 ± 2.7e-05 s⁻¹,0.000176 ± 3.7e-05 s⁻¹,0.000186 ± 3.1e-05 s⁻¹,–
U56G U69G,4.9e-05 ± 9e-06 s⁻¹,–,–,8.25e-05 ± 1.5e-05 s⁻¹,4.12e-05 ± 7.4e-06 s⁻¹,4.98e-05 ± 1.3e-05 s⁻¹,–

Variant,kcat [1],self-cleavage kobs at 40 uM GlcN6P [2],self-cleavage kobs at 160 uM GlcN6P [3],self-cleavage kobs at 640 uM GlcN6P [4],self-cleavage kobs at 10000 uM GlcN6P [5],self-cleavage kobs at 2500 uM GlcN6P [6],KM [7]
U57A G59A,1.13e-05 ± 3e-06 s⁻¹,–,–,< 1e-05 s⁻¹,–,–,–
C61G U69C,6.05e-05 ± 1.7e-05 s⁻¹,–,6.31e-05 ± 1.1e-05 s⁻¹,5.44e-05 ± 1.3e-05 s⁻¹,–,7.59e-05 ± 1.2e-05 s⁻¹,–
C58U C67G,3.65e-05 ± 2.5e-06 s⁻¹,–,–,3.77e-05 ± 1.5e-05 s⁻¹,3.45e-05 ± 9.2e-06 s⁻¹,3.68e-05 ± 1.4e-05 s⁻¹,–
G59U A64G,6.46e-05 ± 1.1e-05 s⁻¹,< 1e-05 s⁻¹,–,–,5.92e-05 ± 9.3e-06 s⁻¹,7.94e-05 ± 2.1e-05 s⁻¹,–
U65C G66A,0.000598 ± 0.00017 s⁻¹,–,–,0.000112 ± 3.9e-05 s⁻¹,0.000416 ± 7.9e-05 s⁻¹,0.000323 ± 0.00014 s⁻¹,–
G60U G66U,< 1e-05 s⁻¹,–,< 1e-05 s⁻¹,< 1e-05 s⁻¹,< 1e-05 s⁻¹,–,–
G60U G66C,< 1e-05 s⁻¹,–,–,–,< 1e-05 s⁻¹,–,–
U55A C70A,0.00013 ± 1.3e-05 s⁻¹,2.79e-05 ± 1.1e-05 s⁻¹,8.57e-05 ± 2e-05 s⁻¹,0.00011 ± 2.1e-05 s⁻¹,0.000114 ± 1.4e-05 s⁻¹,0.000155 ± 2.2e-05 s⁻¹,116 ± 52 µM
C61A C71U,1.05e-05 ± 3.5e-06 s⁻¹,–,–,< 1e-05 s⁻¹,–,–,–
U57A G60C,2.43e-05 ± 9.7e-06 s⁻¹,–,–,–,–,–,–
G60U C67A,< 1e-05 s⁻¹,< 1e-05 s⁻¹,< 1e-05 s⁻¹,–,–,< 1e-05 s⁻¹,–
U55C G66C,0.00112 ± 9.6e-05 s⁻¹,–,7.47e-05 ± 1.8e-05 s⁻¹,0.000336 ± 7.1e-05 s⁻¹,0.000913 ± 9.7e-05 s⁻¹,0.000678 ± 0.00012 s⁻¹,1950 ± 340 µM
U56A G66A,0.00503 ± 0.0023 s⁻¹,0.000167 ± 1.7e-05 s⁻¹,0.00039 ± 6.4e-05 s⁻¹,0.00117 ± 0.00021 s⁻¹,0.00718 ± 0.0011 s⁻¹,0.00253 ± 0.00043 s⁻¹,–
U55C C58G,0.000215 ± 1.3e-05 s⁻¹,–,–,–,9.91e-05 ± 1.2e-05 s⁻¹,3.85e-05 ± 1.1e-05 s⁻¹,–
U57G C61G,1.3e-05 ± 4.8e-06 s⁻¹,–,–,–,–,–,–
G66A C68U,0.00532 ± 0.0011 s⁻¹,0.000228 ± 2.5e-05 s⁻¹,0.000531 ± 0.00015 s⁻¹,0.00267 ± 0.00085 s⁻¹,0.00549 ± 0.0008 s⁻¹,0.00284 ± 0.00078 s⁻¹,983 ± 280 µM
G62U C67G C68U,1.17e-05 ± 4.6e-06 s⁻¹,–,–,–,–,–,–
G59C C68G,2.78e-05 ± 1e-05 s⁻¹,–,–,–,–,–,–
G63A C68A,2.09e-05 ± 4.7e-06 s⁻¹,–,–,–,–,–,–
